Measured values from paper PMC7788135, “OsMS188 Is a Key Regulator of Tapetum Development and Sporopollenin Synthesis in Rice”.

T1: MBP-EAT1 (Oryza sativa (rice; Nipponbare?), UniProt Q7X8R0 1-464)
T1 sequence: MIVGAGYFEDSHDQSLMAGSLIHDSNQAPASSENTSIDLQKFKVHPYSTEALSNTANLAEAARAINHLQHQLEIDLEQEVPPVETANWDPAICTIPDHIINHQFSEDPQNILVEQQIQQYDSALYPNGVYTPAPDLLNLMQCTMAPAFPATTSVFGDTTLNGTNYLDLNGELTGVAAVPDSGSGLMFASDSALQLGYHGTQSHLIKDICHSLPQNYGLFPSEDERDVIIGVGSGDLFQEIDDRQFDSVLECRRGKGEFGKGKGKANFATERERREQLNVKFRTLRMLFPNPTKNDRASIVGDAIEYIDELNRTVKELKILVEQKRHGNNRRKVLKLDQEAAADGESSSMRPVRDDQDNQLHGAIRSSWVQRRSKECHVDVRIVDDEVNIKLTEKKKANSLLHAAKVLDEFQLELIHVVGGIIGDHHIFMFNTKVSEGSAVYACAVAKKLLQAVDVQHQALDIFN

T2: MBP-bHLH142 (Oryza sativa (rice; Nipponbare?), UniProt Q5JNS0 1-379)
T2 sequence: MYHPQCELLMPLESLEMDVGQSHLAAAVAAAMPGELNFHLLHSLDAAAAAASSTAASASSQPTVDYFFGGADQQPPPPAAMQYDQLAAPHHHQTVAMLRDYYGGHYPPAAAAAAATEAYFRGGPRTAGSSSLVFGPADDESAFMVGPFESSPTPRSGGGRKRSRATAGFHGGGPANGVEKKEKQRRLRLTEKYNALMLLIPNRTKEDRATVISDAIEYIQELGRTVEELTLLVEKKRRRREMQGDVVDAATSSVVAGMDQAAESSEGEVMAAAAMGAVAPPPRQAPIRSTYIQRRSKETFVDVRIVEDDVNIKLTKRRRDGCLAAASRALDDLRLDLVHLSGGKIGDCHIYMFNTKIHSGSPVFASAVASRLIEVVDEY

T3: MBP-OsMS188 (Oryza sativa (rice; Nipponbare?), UniProt Q7XQN1 1-372)
T3 sequence: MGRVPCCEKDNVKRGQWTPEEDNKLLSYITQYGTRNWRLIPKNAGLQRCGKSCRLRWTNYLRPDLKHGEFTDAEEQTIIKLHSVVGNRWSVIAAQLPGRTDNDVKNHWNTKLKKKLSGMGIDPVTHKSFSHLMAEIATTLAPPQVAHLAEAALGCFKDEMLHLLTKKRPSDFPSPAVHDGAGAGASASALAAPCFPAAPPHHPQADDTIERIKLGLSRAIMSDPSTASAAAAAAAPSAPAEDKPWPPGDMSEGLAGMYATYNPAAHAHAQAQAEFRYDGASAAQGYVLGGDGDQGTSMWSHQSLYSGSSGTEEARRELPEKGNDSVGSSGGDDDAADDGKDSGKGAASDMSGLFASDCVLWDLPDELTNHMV


Tests used:
MBP-TDR = MBP-TDR (Oryza sativa (rice; Nipponbare?), UniProt Q6YUS3 1-552); test: EMSA; unlabelled probe (5- to 200-fold) competes; LightShift Chemiluminescent EMSA Kit (Thermo); buffer, salt, pH and temperature not stated
MBP-EAT1 = biological target: T1, MBP-EAT1; test: EMSA; shifted band not reduced by unlabelled probe; authors conclude no direct binding; LightShift Chemiluminescent EMSA Kit (Thermo); buffer, salt, pH and temperature not stated; settings: protein: recombinant; chain copies: 2; label: biotin; blunt
MBP-bHLH142 = biological target: T2, MBP-bHLH142; test: as above; settings: protein: recombinant; chain copies: 2; label: biotin; blunt
MBP-OsMS188 = biological target: T3, MBP-OsMS188; test: EMSA; unlabelled probe competes; LightShift Chemiluminescent EMSA Kit (Thermo); buffer, salt, pH and temperature not stated; settings: protein: recombinant; label: biotin; blunt

| Binder | binding result (MBP-OsMS188) | also measured |
| --- | --- | --- |
| OsMS188 promoter probe (dsDNA) DNA 1: GAGAATGCATTTGGTGGTCGTGTGTTGTTTGTAACAACTGGGGAGC DNA 2: GCTCCCCAGTTGTTACAAACAACACACGACCACCAAATGCATTCTC | – | binding result (MBP-TDR): binds; binding result (MBP-EAT1): no binding; binding result (MBP-bHLH142): no binding |
| CYP703A3 promoter probe (dsDNA) DNA 1: GATATCACATGACTTGTACATAATGCCTAAAATGTGGATATCTGACCAGGTGCTTGGTG DNA 2: CACCAAGCACCTGGTCAGATATCCACATTTTAGGCATTATGTACAAGTCATGTGATATC | binds | – |
| CYP704B2 promoter probe (dsDNA) DNA 1: AATAGCCTATTCAGATGAAGTAGAATTCAGGTGAAGTAGAAACCAACTACTTTGGGTTC DNA 2: GAACCCAAAGTAGTTGGTTTCTACTTCACCTGAATTCTACTTCATCTGAATAGGCTATT | binds | – |
| OsPKS2 promoter probe (dsDNA) DNA 1: TACCTGCTCTCCACCAACCATTCTTTCCATGCATTCGTTGCCTCTCAACTGCACCAGCT DNA 2: AGCTGGTGCAGTTGAGAGGCAACGAATGCATGGAAAGAATGGTTGGTGGAGAGCAGGTA | binds | – |
| OsPKS1 promoter probe (dsDNA) DNA 1: GCAAAAATGCAGGGTAAAACCAAAGAAGGGTGGAAGGAATGAACCTTCTGCTCCCCCC DNA 2: GGGGGGAGCAGAAGGTTCATTCCTTCCACCCTTCTTTGGTTTTACCCTGCATTTTTGC | binds | – |
| DPW promoter probe (dsDNA) DNA 1: AGGGAACTGAATCTTTTGCATGAACCACTGCATTTCCAAGAAGTGCACGAGCTTTGCA DNA 2: TGCAAAGCTCGTGCACTTCTTGGAAATGCAGTGGTTCATGCAAAAGATTCAGTTCCCT | binds | – |
| ABCG15 promoter probe (dsDNA) DNA 1: AGTCTGCTTGGCGCTCTCTCTCTGAACCTGTCACTCTTTTTTTCTGTGTCT DNA 2: AGACACAGAAAAAAAGAGTGACAGGTTCAGAGAGAGAGCGCCAAGCAGACT | binds | – |
